T1: His-TF-TaGATA1 (Triticum aestivum (line CI12633), UniProt A0A5K7NI72 1-181)
T1 sequence: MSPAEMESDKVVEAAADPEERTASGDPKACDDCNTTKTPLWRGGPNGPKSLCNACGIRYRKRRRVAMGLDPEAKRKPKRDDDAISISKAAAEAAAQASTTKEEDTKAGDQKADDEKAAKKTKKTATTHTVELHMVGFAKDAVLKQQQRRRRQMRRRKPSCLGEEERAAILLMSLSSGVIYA


Key:
His-TF-TaGATA1 [1] = target: T1, His-TF-TaGATA1; assay: EMSA
His-TF-TaGATA1 [2] = target: T1, His-TF-TaGATA1; assay: competition

| Binder | binding result (His-TF-TaGATA1 [1]) | binding result (His-TF-TaGATA1 [2]) |
| --- | --- | --- |
| GATA-containing probe (dsDNA) DNA 1: AGTCGACGTGGATAATGGATCCTCGAGTGGATAATTCGATC DNA 2: GATCGAATTATCCACTCGAGGATCCATTATCCACGTCGACT | binds |  |
| unlabelled GATA-containing competitor (dsDNA) DNA 1: AGTCGACGTGGATAATGGATCCTCGAGTGGATAATTCGATC DNA 2: GATCGAATTATCCACTCGAGGATCCATTATCCACGTCGACT |  | binds |
